Laboratory results taken from patent US12558381B2, “Development of amnion-like tissue from human pluripotent stem cells” (THE REGENTS OF THE UNIVERSITY OF MICHIGAN, priority 2016, dated 2026).

System: hPSCs cultured in Gel-3D
Assay: hPSC amniogenesis assay (Gel-3D culture), requirement of BMP-SMAD signalling
Format: cell-based, human
Description: Implantation-Like Niche Described herein is a biomimicry approach to engineer a biomaterial-based in vitro hPSC culture system for efficient generation of early human amniotic tissue. Specifically, a biomimetic implantation-like niche for cultured hPSCs was constructed by implementing two major biophysical factors seen in the in vivo amniogenic niche: a three-dimensional (3D) extracellular matrix (ECM) that is provided by the basement membrane surrounding the epiblast during implantation 1l; and a soft tissue bed provided by the uterine wall and trophoblast to support the developing amnion (FIG. 1a,b). mTeSR1 medium and basement membrane matrix (Geltrex) was used to render the culture permissive for pluripotency maintenance. In this culture system, H9 human embryonic stem cells (hESCs) were plated as single cells at 30,000 cells cm^2 onto a thick, soft gel bed of Geltrex (with thickness 100 μm, bulk Young's modulus 900 Pa, coated on a glass coverslip), in mTeSR1 medium supplemented with the ROCK inhibitor Y2763212 (FIG. 1b). At 24 h (day 1), medium containing Y27632 was replaced by fresh mTeSR1 supplemented with 4% (v/v) Geltrex to establish a 3D implantation-like niche (referred to henceforth as the ‘Gel-3D’ condition). To assess the effect of ECM dimensionality and matrix rigidity, respectively, several modifications of this Gel-3D condition were tested (FIG. 1b). First, the Geltrex supplement was excluded from the medium, with the gel bed retained (referred to henceforth as the ‘Gel-2D’ condition). Second, the soft gel bed was replaced by a 1% Geltrex-coated glass coverslip (referred to henceforth as the ‘Glass-3D’ condition). Finally, a standard 2D culture, using a 1% Geltrex-coated glass coverslip (referred to henceforth as the ‘Glass-2D’ condition), was examined as a control that maintains hPSC self-renewal. Culture medium was replenished daily. Analyses were performed at day 5 unless otherwise noted (FIG. 1b). […]

Molecule | hPSC-amnion development (hPSCs cultured in Gel-3D, treatment on day 2 alone or on both days 2 and 3, FIG. 5d) | development of hPSC-amnion (hPSCs in Gel-3D, treatment with NOGGIN) | amniogenic differentiation (restatement in Example 2 of the BMP-SMAD requirement for amniogenesis)
c1ccc2c(-c3cnn4cc(-c5ccc(N6CCNCC6)cc5)cnc34)ccnc2c1 [LDN193189, reference compound] | inhibited hPSC-amnion development | – | –
NOGGIN: a protein that antagonizes BMP2/4/7 (protein, UniProt Q13253 28-232, looked up) Noggin: QHYLHIRPAPSDNLPLVDLIEHPDPIFDPKEKDLNETLLRSLLGGHYDPGFMATSPPEDRPGGGGGAAGGAEDLAELDQLLRQRPSGAMPSEIKGLEFSEGLAQGKKQRLSKKLRRKLQMWLWSQTFCPVLYAWNDLGSRFWPRYVKVGSCFSKRSCSVPEGMVCKPSKSVHLTVLRWRCQRRGGQRCGWIPIQYPIISECKCSC | – | inhibited | inhibit amniogenic differentiation
